Experimental findings from US20260022175A1 (Chugai, published 2026) are described below.

Test [1] addresses T1, human CTLA4 (human).
T1 construct: also called hCTLA4; hCTLA4-His-BAP
The experiment in a line: SPR Biacore T200, 37C, antibody captured, no ATP, steady state model. In general terms: SPR reads the build-up and loss of mass on a sensor chip optically.
Method: Biacore T200 was used to measure the binding of the generated antibodies to human CTLA4. 20 mM ACES (pH 7.4), 150 mM NaCl, 2 mM MgCl₂, 0.05% Tween 20 with ATP added to the desired concentration was used as the running buffer, and the assay was performed at 37° C. First, Protein G (CALBIOCHEM) was immobilized onto a Series S Sensor Chip CM3 (GE Healthcare), and the antibodies were captured by interacting an antibody solution prepared in an ATP-free running buffer with the chip. Next, by interacting with a human CTLA4 solution prepared in a running buffer containing ATP to the desired concentration, or a human CTLA4 solution prepared in a running buffer containing no ATP, the binding ability of the antibody to human CTLA4 in the presence or absence of ATP was evaluated. Chips were regenerated with 25 mM NaOH and 10 mM Glycine-HCl (pH 1.5), and assay was performed by repeatedly capturing antibodies. The dissociation constant of each antibody for CTLA4 was calculated using Biacore T200 Evaluation Software 2.0. Specifically, the binding rate constant ka (L/mol/s) and the dissociation rate constant kd (1/s) were calculated by global fitting of the sensorgrams obtained by the measurement, using a 1:1 Langmuir binding model. The dissociation constant KD (mol/L) was calculated from those values. Alternatively, the dissociation constant KD (mol/L) was calculated by the steady state model.

In test [2] the target is T2, cynomolgus monkey CTLA4 (CyCTLA4-His-BAP) (cynomolgus monkey). The experiment in a line: SPR Biacore T200, 37C, antibody captured, ATP 1 uM.
T2 sequence (chain, as listed by the source limits assumed): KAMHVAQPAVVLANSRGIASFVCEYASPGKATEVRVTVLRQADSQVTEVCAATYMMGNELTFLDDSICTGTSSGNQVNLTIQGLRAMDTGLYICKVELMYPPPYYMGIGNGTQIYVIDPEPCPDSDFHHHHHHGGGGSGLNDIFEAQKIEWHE
Method: (§1) Biacore T200 was used to measure the binding of the generated antibodies to human CTLA4. 20 mM ACES (pH 7.4), 150 mM NaCl, 2 mM MgCl₂, 0.05% Tween 20 with ATP added to the desired concentration was used as the running buffer, and the assay was performed at 37° C. First, Protein G (CALBIOCHEM) was immobilized onto a Series S Sensor Chip CM3 (GE Healthcare), and the antibodies were captured by interacting an antibody solution prepared in an ATP-free running buffer with the chip. Next, by interacting with a human CTLA4 solution prepared in a running buffer containing ATP to the desired concentration, or a human CTLA4 solution prepared in a running buffer containing no ATP, the binding ability of the antibody to human CTLA4 in the presence or absence of ATP was evaluated. Chips were regenerated with 25 mM NaOH and 10 mM Glycine-HCl (pH 1.5), and assay was performed by repeatedly capturing antibodies. The dissociation constant of each antibody for CTLA4 was calculated using Biacore T200 Evaluation Software 2.0. Specifically, the binding rate constant ka (L/mol/s) and the dissociation rate constant kd (1/s) were calculated by global fitting of the sensorgrams obtained by the measurement, using a 1:1 Langmuir binding model. The dissociation constant KD (mol/L) was calculated from those values. Alternatively, the dissociation constant KD (mol/L) was calculated by the steady state model. In addition, the binding amount of CTLA4 per unit amount of antibody was calculated by correcting the amount of CTLA4 bound as calculated from the sensorgram obtained by the assay with the amount of antibody captured onto the chip surface.
(§2) Next, the binding ability of some variants to mouse CTLA4 and cynomolgus monkey CTLA4 was evaluated.
Test [3] concerns the target T1, human CTLA4. The experiment in a line: SPR Biacore T200, 37C, antibody captured, ATP 1 uM.
Method: as §1, §2
The target of test [4] is T3, mouse CTLA4 extracellular region linked with a His-tag (mCTLA4-His) (mouse, UniProt P09793 36-161). Nature of the test: SPR Biacore T200, 37C, antibody captured, ATP 1 uM.
Method: as §1, §2
Test [5] addresses T1, human CTLA4. Nature of the test: SPR Biacore T200, 37C, antibody captured, ATP 10 uM.
Method: as §1
(§3) The binding ability of the generated variants to human CTLA4 in the presence of ADP or AMP was evaluated by Biacore T200 and compared with the binding ability in the presence of ATP.
In test [6] the target is T1, human CTLA4. The test is described as above. This is another data set of the same source.
The target of test [7] is T2, cynomolgus monkey CTLA4 …. The test is described as above.
Test [8] has as its target T1, human CTLA4. The description is as above. This is another data set of the same source.
The target of test [9] is T3, mouse CTLA4 extracellular region linked …. Described as above.
Test [10] addresses T1, human CTLA4. The experiment in a line: SPR Biacore T200, 37C, antibody captured, ATP 1 uM. This is another data set of the same source.
In test [11] the target is T1, human CTLA4. Nature of the test: SPR Biacore T200, 37C, antibody captured, AMP 10 uM.
Method: as §1, §3
For test [12], the target named is T2, cynomolgus monkey CTLA4 …. Nature of the test: SPR Biacore T200, 37C, antibody captured, ATP 100 uM.
The target in test [13] is T1, human CTLA4. Described as above.
In test [14] the target is T3, mouse CTLA4 extracellular region linked …. Described as above.
The target of test [15] is T1, human CTLA4. The experiment in a line: SPR Biacore T200, 37C, antibody captured, ADP 10 uM.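 Further: antibodies held on a Protein G CM3 chip, human CTLA4 as analyte in ACES pH 7.4 buffer, rates from a global 1:1 Langmuir fit, Kd from rates or steady state.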
Method: as §1, §3

T1 sequence (chain, as listed by the source limits assumed): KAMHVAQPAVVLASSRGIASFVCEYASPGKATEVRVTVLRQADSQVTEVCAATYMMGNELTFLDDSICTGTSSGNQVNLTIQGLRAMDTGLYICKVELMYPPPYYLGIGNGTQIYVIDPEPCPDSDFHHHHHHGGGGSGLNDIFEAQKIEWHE

B1: 04H1654-G1m/04L1612-lam1 (antibody, human IgG1, lambda)
heavy: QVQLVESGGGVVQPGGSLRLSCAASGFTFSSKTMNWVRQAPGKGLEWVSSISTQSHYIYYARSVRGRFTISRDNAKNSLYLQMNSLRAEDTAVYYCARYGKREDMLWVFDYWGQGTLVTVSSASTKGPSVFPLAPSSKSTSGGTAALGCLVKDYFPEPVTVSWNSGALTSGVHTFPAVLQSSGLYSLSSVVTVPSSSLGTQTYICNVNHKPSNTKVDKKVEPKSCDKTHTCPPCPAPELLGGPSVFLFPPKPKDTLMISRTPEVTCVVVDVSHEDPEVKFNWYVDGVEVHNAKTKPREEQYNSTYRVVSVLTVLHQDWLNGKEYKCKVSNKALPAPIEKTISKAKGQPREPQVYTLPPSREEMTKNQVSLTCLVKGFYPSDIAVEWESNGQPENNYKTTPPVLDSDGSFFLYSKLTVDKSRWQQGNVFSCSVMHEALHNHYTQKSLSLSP
light: QSALTQPPSASGSPGQSVTISCEGPSTGVGDYTYVHWYQQHPGKAPKLMIYFTSKKPSGVPDRFSGSKSGNTASLTVSGLQAEDEADYYCQTYAAPLGPMFGGGTKLTVLGQPKAAPSVTLFPPSSEELQANKATLVCLISDFYPGAVTVAWKADSSPVKAGVETTTPSKQSNNKYAASSYLSLTPEQWKSHRSYSCQVTHEGSTVEKTVAPTECS
Usually Kd stands for the constant that tells how readily two partners part at equilibrium. In general, koff refers to a measure of how fast the partners let go of each other. As usually defined, the kon is a measure of how fast the partners come together. For the molecule B1, the Kd with human CTLA4 [1] was found to be 4800 nM; in test [2], 310 nM; with human CTLA4 [3], 170 nM; in [4], 390 nM; in the test with human CTLA4 [5], 36 nM; with human CTLA4 [6], 33 nM. Moreover, the Kd amounted to 54 nM in test [7]; 30 nM with human CTLA4 [8]; 48 nM in [9]; 200 nM with human CTLA4 [10]; 170 nM with human CTLA4 [11]; 21 nM in [12]. Moreover, the figures for the Kd (in the test with human CTLA4 [13]; in test [14]; in the test with human CTLA4 [15]) were 11 nM, 18 nM and 56 nM, respectively. Further, the koff is 0.0027 s⁻¹ with human CTLA4 [5], 0.016 s⁻¹ with human CTLA4 [11] and 0.005 s⁻¹ in the test with human CTLA4 [15]. Further, the results for the kon in the test with human CTLA4 [5], with human CTLA4 [11] and with human CTLA4 [15] were 74000 M⁻¹ s⁻¹, 94000 M⁻¹ s⁻¹ and 89000 M⁻¹ s⁻¹, respectively.

B2: 04H1656-G1m/04L1610-lam1 (antibody, human IgG1, lambda)
heavy: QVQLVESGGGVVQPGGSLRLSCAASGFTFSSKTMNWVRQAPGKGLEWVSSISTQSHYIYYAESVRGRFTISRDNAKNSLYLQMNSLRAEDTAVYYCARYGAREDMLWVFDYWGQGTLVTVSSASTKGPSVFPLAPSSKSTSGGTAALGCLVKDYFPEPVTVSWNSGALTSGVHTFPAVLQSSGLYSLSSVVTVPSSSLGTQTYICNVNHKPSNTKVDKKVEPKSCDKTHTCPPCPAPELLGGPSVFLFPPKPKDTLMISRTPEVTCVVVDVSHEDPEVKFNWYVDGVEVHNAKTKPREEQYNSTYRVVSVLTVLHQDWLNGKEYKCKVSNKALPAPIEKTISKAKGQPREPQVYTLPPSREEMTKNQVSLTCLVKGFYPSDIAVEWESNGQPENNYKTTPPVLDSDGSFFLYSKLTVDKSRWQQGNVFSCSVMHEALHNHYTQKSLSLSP
light: QSALTQPPSASGSPGQSVTISCEGPSTGVGDYNWVHWYQQHPGKAPKLMIYFTSKKPSGVPDRFSGSKSGNTASLTVSGLQAEDEADYYCQTYAAPLGPMFGGGTKLTVLGQPKAAPSVTLFPPSSEELQANKATLVCLISDFYPGAVTVAWKADSSPVKAGVETTTPSKQSNNKYAASSYLSLTPEQWKSHRSYSCQVTHEGSTVEKTVAPTECS
In the case of B2, the Kd stood at 2200 nM with human CTLA4 [1]; 120 nM in test [2]; 79 nM in the test with human CTLA4 [3]; 230 nM in test [4]; 15 nM with human CTLA4 [5]; 19 nM with human CTLA4 [6]. The Kd in test [7] stood at 26 nM; in the test with human CTLA4 [8] it was 16 nM; in test [9], 37 nM; with human CTLA4 [10], 98 nM; in the test with human CTLA4 [11], 82 nM; in test [12], 10 nM. The Kd worked out at 6.2 nM with human CTLA4 [13], 14 nM in test [14] and 25 nM with human CTLA4 [15]. Further, the koff is 0.0019 s⁻¹ with human CTLA4 [5], 0.014 s⁻¹ with human CTLA4 [11] and 0.0043 s⁻¹ with human CTLA4 [15]. Besides, the association rate constant (kon) worked out at 130000 M⁻¹ s⁻¹ with human CTLA4 [5], 170000 M⁻¹ s⁻¹ with human CTLA4 [11] and 170000 M⁻¹ s⁻¹ in the test with human CTLA4 [15].

B3: 04H1389-G1m/04L1615-k0MT (antibody, human IgG1, kappa)
heavy: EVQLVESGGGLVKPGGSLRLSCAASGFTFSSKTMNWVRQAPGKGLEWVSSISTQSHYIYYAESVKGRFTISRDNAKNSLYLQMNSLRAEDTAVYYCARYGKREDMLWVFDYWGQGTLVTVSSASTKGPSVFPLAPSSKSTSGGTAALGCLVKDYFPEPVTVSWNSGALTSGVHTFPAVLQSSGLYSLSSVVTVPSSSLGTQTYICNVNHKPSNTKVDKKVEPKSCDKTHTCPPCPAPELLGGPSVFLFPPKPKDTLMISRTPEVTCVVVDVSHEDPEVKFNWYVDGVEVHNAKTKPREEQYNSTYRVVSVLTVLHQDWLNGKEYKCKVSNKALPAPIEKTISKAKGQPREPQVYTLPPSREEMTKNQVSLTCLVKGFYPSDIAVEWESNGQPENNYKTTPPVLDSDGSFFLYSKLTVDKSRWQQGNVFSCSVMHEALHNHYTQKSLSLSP
light: DIVMTQSPLSLPVTPGEPASISCQGPSTGVGDYNYVHWYQQKPGQAPRLLIYFTSKKPSGVPDRFSGSGSGTDFTLKISRVEAEDVGVYYCQTYAAPLGPMFGQGTKLEIKRTVAAPSVFIFPPSDEQLKSGTASVVCLLNNFYPREAKVQWKVDNALQSGNSQESVTEQDSKDSTYSLSSTLTLSKADYEKHKVYACEVTHQGLSSPVTKSFNRGEC
Turning to B3, the Kd with human CTLA4 [1] was 2000 nM; in test [2], 110 nM; with human CTLA4 [3] it was 58 nM; in test [4], 160 nM; with human CTLA4 [5] it was 11 nM; with human CTLA4 [6], 15 nM. Moreover, the Kd was 21 nM in [7]; 12 nM in the test with human CTLA4 [8]; 26 nM in [9]; 72 nM with human CTLA4 [10]; 55 nM with human CTLA4 [11]; 9.3 nM in test [12]. The Kd with human CTLA4 [13] is 5 nM; in test [14] it was 10 nM; in the test with human CTLA4 [15] it was 17 nM. Also, the koff in the test with human CTLA4 [5] was determined as 0.0015 s⁻¹; with human CTLA4 [11] it was 0.0097 s⁻¹; with human CTLA4 [15], 0.003 s⁻¹. Moreover, the kon in the test with human CTLA4 [5] was 130000 M⁻¹ s⁻¹; with human CTLA4 [11] it was 170000 M⁻¹ s⁻¹; with human CTLA4 [15] it was 180000 M⁻¹ s⁻¹.
